Data from US20220073599A1 (Hoffmann-La Roche, published 2022).

Tests used:
human Ang2-RBD [1] = target: T1, human Ang2-RBD (human, UniProt O15123 275-496, limits assumed); assay: SPR, Fab captured by anti-Fab antibody, Ang2-RBD injected, 25 C
T1 construct: also called Human ANG2 (SPR); Angiopoietin 2-RBD
T1 sequence: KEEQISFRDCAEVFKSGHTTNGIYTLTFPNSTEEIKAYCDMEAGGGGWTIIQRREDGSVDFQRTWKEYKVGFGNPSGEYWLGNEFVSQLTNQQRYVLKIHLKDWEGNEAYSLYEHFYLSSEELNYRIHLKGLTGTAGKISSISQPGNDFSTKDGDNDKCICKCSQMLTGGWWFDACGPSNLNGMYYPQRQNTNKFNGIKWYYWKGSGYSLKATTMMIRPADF
Description: (§1) An anti-Fab capturing antibody (GE Healthcare 28958325) was immobilized to a Series S Sensor Chip C1 (GE Healthcare BR100535) using standard amine coupling chemistry resulting in a surface density of approximately 800 resonance units (RU). As running and dilution buffer, HBS-P+ (10 mM HEPES, 150 mM NaCl pH 7.4, 0.05% Surfactant P20) was used, the temperature of measurement was 25° C. The tested antibody was captured by injecting a 50 nM solution for 60 sec at a flow of 5 μl/min. Association was measured by injection of human Ang2-RBD in various concentrations in solution for 180 sec at a flow of 30 μl/min (0.07 nM-50 nM, 1:3 dilution). The dissociation phase was monitored for up to 900 sec and triggered by switching from the sample solution to running buffer at a flow rate of 30 μl/min. The surface was regenerated by injection of 10 mM Glycine pH 2.1 for 60 s at a flow rate of 30 μl/min. Bulk refractive index differences were corrected by subtracting blank injections and by subtracting the response obtained from the reference flow cell without captured tested antibody. Curve fitting was performed using the 1:1 Langmuir binding model within the Biacore® evaluation software.
(§2) Binding kinetics to human VEGF-A and human ANG2 for the candidate antibodies were assessed as described above using the indicated Fab fragments (amino acid sequence as illustrated in Table 4).

human VEGFA-121-His [2] = target: T2, human VEGFA-121-His (human, UniProt P15692 181-395); assay: KinExA equilibrium titration in solution, constant VEGFA-121-His
T2 construct: Prepared in-house; not shown: His tag
T2 sequence: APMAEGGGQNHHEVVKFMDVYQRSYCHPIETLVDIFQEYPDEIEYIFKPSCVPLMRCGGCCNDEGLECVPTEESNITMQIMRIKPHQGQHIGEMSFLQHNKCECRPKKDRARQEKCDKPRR
Description: All KinExA® experiments were performed at room temperature (RT) using PBS pH 7.4 with 0.01% BSA and 0.01% Tween® 20 (BioRad, #161-0781) as running buffer. […] A flow rate of 0.25 ml/min was used. […] Antigen-antibody complexes were incubated at RT for at least 8 h to allow equilibrium to be reached. […] Each sample was measured in duplicates for all equilibrium experiments. The KD was obtained from non-linear regression analysis of the data using a one-site homogeneous binding model contained within the KinExA® software (Version 4.0.11) using the “standard analysis” method. The software calculates the KD and determines the 95% confidence interval by fitting the data points to a theoretical KD curve. The 95% confidence interval is given as KD low and KD high.
as §2

human Ang2-RBD [3] = target: T1, human Ang2-RBD; assay: SPR, Fab captured by anti-Fab antibody, Ang2-RBD injected, 25 C, 1:1 fit
Description: as §1, §2

human VEGFA-121-His [4] = target: T2, human VEGFA-121-His; assay: SPR, VEGF-A121-His captured by anti-His antibody, Fab injected, single cycle kinetics
Description: (§3) An anti-His capturing antibody (GE Healthcare 28995056) was immobilized to a Series S Sensor Chip C1 (GE Healthcare BR100535) using standard amine coupling chemistry resulting in a surface density of approximately 600 resonance units (RU). As running and dilution buffer, HBS-P+ (10 mM HEPES, 150 mM NaCl pH 7.4, 0.05% Surfactant P20) was used. […] A dilution series of the tested antibody (3.7-300 nM, 1:3 dilution) was successively injected for 60 s each, dissociation was monitored for 3600 s at a flow rate of 30 μl/min (single cycle kinetics). The surface was regenerated by injecting 10 mM Glycine pH 1.5 for 60 s at a flow of 5 μl/min. […] Curve fitting was performed using the 1:1 Langmuir binding model within the Biacore® evaluation software.
as §2

human VEGFA-121-His [5] = target: T2, human VEGFA-121-His; assay: SPR, VEGF-A121-His captured by anti-His antibody, Fab injected, single cycle kinetics, 1:1 fit
Description: as §3, §2

human Ang2-RBD [6] = target: T1, human Ang2-RBD; assay: SPR, Fab captured by anti-Fab antibody; 2) Ang2-RBD alone, then buffer; final signal in % of the sum of the single signals
Description: (§4) The bispecific Fab was captured by injecting a 6.5 μg/ml solution for 60 sec at a flow of 5 μl/min. Independent binding of each ligand to the bispecific Fab was analysed by determining the active binding capacity for each ligand, either added sequentially or simultaneously (flow of 10 μl/min): [0359] […] [0360] 2) Injection of human Ang2 with a concentration of 5 μg/ml for 60 sec (identifies single binding of the antigen) [0361] […] [0362] […] [0363]
(§5) Independent binding of candidate antibodies to human VEGF-A and human ANG2 was analysed by SPR as described above in the “Materials & general methods” section.

human VEGFA-121 [7] = target: T3, human VEGFA-121 (human, UniProt P15692 181-395); assay: SPR, Fab captured by anti-Fab antibody; 1) VEGFA-121 alone, then buffer; final signal in % of the sum of the single signals
T3 construct: sources differ (in-house, R&D, Peprotech); also called hVEGF-A121
T3 sequence: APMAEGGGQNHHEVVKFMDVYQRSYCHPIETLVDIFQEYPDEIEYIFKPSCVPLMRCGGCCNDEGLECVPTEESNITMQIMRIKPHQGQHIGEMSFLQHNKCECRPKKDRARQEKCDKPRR
Description: as §4, §5

human Ang2-RBD [8] = target: T1, human Ang2-RBD; assay: SPR, Fab captured by anti-Fab antibody; 3) VEGFA-121 first, then Ang2-RBD (binding of Ang2 in the presence of VEGFA-121); final combined signal of both antigens
Description: as §4, §5

human VEGFA-121 [9] = target: T3, human VEGFA-121; assay: SPR, Fab captured by anti-Fab antibody; 4) Ang2-RBD first, then VEGFA-121 (binding of VEGFA-121 in the presence of Ang2); final combined signal of both antigens
Description: as §4, §5

| Binder | t1/2 (human Ang2-RBD [1]) [h] | Kd (human VEGFA-121-His [2]) [nM] | Kd (human Ang2-RBD [3]) [nM] | koff (human Ang2-RBD [3]) [s⁻¹] | kon (human Ang2-RBD [3]) [M⁻¹ s⁻¹] | t1/2 (human VEGFA-121-His [4]) [h] | kon (human VEGFA-121-His [5]) [M⁻¹ s⁻¹] | Signal [%] (human Ang2-RBD [6]) | Signal [%] (human VEGFA-121 [7]) | Signal [%] (human Ang2-RBD [8]) | Signal [%] (human VEGFA-121 [9]) |
| --- | --- | --- | --- | --- | --- | --- | --- | --- | --- | --- | --- |
| bispecific anti-VEGF-A/anti-ANG2 Fab fragment P1AA0902 (Fab, V domains shown, Bispecific Fab with two paratopes in one VH/VL pair) VH: DDHLVESGGGLVKPGGSLRLSCATADFFEYDDMSWVRQAPGKGLEWVGSISGRGDHKYLNTKFIGRFTISRDDSKNTLYLQMNSLRAEDTAVYYCARDVGFFDWWGQGTLVTVSS VL: AIYMHQEPSSLSASVGDRVTITCHGSYWLNSELAWYQQKPGKAPKLLIFDGDFKVFDVPSRFSGSGSHEDYTLTISSLQPEDFATYYCQQYRYHPYTFGHGTKVEIKR | 1.82 | 0.0114 | 0.019 | 0.000106 | 5.51e+06 | 23.3 | 737000 | 50 | 50 | 85 | 90 |
| bispecific anti-VEGF-A/anti-ANG2 Fab fragment P1AA8906 (Fab, V domains shown, Bispecific Fab with two paratopes in one VH/VL pair (DutaFab); CH1 and Ckappa) VH: DFQLVESGGGLVKPGGSLRLSCAASYEFEYDDMSWVRQAPGKGLEWVGSISPKGGSTYYNTKFIGRFTISRDNSKNTLYLQMNSLRAEDTAVYYCARDVGFFDMWGQGTLVTVSS VL: AIYMHQEPSSLSASVGDRVTITCHGSYWLSNYLAWYQQKPGKAPKLLIFDARWLVHGVPSRFSGSGSHEDYTLTISSLQPEDFATYYCQQYRYHPYTFGHGTKVEIKR | 0.00667 | 0.0109 | 4.55 | 0.032 | 7.03e+06 | 42.5 | 1.66e+06 | 50 | 50 | 82 | 91 |
| bispecific anti-VEGF-A/anti-ANG2 Fab fragment P1AD9820 (Fab, V domains shown, Bispecific Fab with two paratopes in one VH/VL pair; also called P1AD9820 Fab) VH: SEHLVESGGGLVKPGGSLRLSCATADFFEYDDMSWVRQAPGKGLEWVGSISPKGDHKYLNTKFIGRFTISRDDSKNTLYLQMNSLRAEDTAVYYCARDVGFFDWWGQGTLVTVSS VL: AIYMHQEPSSLSASVGDRVTITCHGSYWLNSEVAWYQQKPGKAPKLLIFDGDFKVYEVPSRFSGSGSHEDYTLTISSLQPEDFATYYCQQYRYHPYTFGHGTKVEIKR | 3.33 | 0.00385 | 0.008 | 5.78e-05 | 7.43e+06 | 33.1 | 727000 | 50 | 50 | 85 | 92 |
